Like-named read-outs stand apart in the source and are kept apart here.
Assays:
PCNA (Homo sapiens) [1] = target: PCNA (Homo sapiens) (UniProt P12004); conditions: cited from earlier work
PCNA (Homo sapiens) [2] = target: PCNA (Homo sapiens) (UniProt P12004); conditions: cited from earlier work; remark: listed apart in the source
[3] = target: the molecule itself; assay: native gel or EMSA; 12% native PAGE, 80 V for 5 h at 4°C, 25 mM Tris base, 192 mM glycine, pH 8.8, Coomassie staining; migration compared with carbonic anhydrase or with the mutant
[4] = target: the molecule itself; assay: cross-linking; 1-5 μg of protein in 20 mM Hepes pH 7.5, 0.5% formaldehyde, 30 min at 25°C, 12% SDS-PAGE, Coomassie
[5] = target: the molecule itself; assay: ITC; p12 (10 μM) in the cell, p12 (120 μM) in the syringe, 30°C, 20 mM Hepes pH 7.4, 150 mM NaCl, single-site model; dimer to monomers
[6] = target: T1, human PCNA, wild type, purified (human, UniProt P12004 1-261); assay: ITC; p12 (10 μM) in the cell, PCNA (120 μM) in the syringe, 25°C, 20 mM Hepes pH 7.4, 150 mM NaCl, single-site model; p12 taken as a dimer and PCNA as a trimer; conditions: both partners purified
T1 construct: Proliferating cell nuclear antigen, human; amplified from cDNA of HeLa total RNA; Treated as a trimer in the ITC analysis; also called hPCNA; proliferating cell nuclear antigen; source: E. coli BL21 DE3, purified (expressed as GST fusion, glutathione-sepharose)
T1 sequence (P12004 whole entry, the tested form may be a part): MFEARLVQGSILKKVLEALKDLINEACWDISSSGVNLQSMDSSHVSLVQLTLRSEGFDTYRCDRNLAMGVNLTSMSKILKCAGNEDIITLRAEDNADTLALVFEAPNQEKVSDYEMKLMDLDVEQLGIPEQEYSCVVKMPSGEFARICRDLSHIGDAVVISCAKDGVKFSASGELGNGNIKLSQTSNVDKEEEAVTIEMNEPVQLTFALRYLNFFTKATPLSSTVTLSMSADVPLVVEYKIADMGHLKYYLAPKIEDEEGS

Sequence of PCNA (Homo sapiens) (P12004 whole entry): as the sequence (P12004 whole entry, the tested form may be a part) above

For “DNA polymerase delta core (from UniProt P28340)”, the Kd (PCNA (Homo sapiens) [1]) is given as 73 nM.

For “DNA polymerase delta holoenzyme (from UniProt P28340)”, the Kd (PCNA (Homo sapiens) [2]) is given as 7.1 nM.

B1: Cdm1 of Schizosaccharomyces pombe, wild type, purified (natural protein, S. pombe, UniProt O59835 1-160, looked up)
chain: MKKRTTQAKKSGQNTNIRDVFPHVVRSNSSQSHIGKKVSSEQSPTPDVTITTKTLDERIKEDDELSKEVEEAWNQIMAERISEPIHCENITKVEFILHHFDTTARYGPYLGMTRMQRWKRAKNFNLNPPETVGKILMLEEADEENRKRESLFYDLQTIPG
notes: Cdm1, fourth subunit of DNA polymerase delta, S. pombe; 160 aa, 18.6 kD; PCR-amplified from genomic DNA; also called wild-type Cdm1; source: E. coli BL21 DE3, purified (bacterial overexpression from pNA716)
B1: binds [3].

B2: p12 subunit of human DNA polymerase delta, wild type, purified, GST tag cleaved off (natural protein, UniProt Q9HCU8 1-107, looked up)
chain: MGRKRLITDSYPVVKRREGPAGHSKGELAPELGEEPQPRDEEEAELELLRQFDLAWQYGPCTGITRLQRWCRAKQMGLEPPPEVWQVLKTHPGDPRFQCSLWHLYPL
notes: DNA polymerase delta subunit 4 (p12), human; PCR product from pCOLA-hPold234; also called untagged p12; wild-type p12; source: E. coli BL21 DE3, purified (glutathione-sepharose; GST cleaved by PreScission protease); not shown: GST, N-terminal, cleaved
With B2 the “stoichiometry N” value [4] was 2, the Kd [5] was about 146 nM and the dH [5] was -1.82 kcal/mol. For the same molecule, the “stoichiometry N” value [5] was about 0.6 and the Kd [6] was 10000 nM.

B3: p12 L104A, Y105A mutant, purified, GST tag cleaved off (natural protein, human, UniProt Q9HCU8 1-107, looked up)
chain: MGRKRLITDSYPVVKRREGPAGHSKGELAPELGEEPQPRDEEEAELELLRQFDLAWQYGPCTGITRLQRWCRAKQMGLEPPPEVWQVLKTHPGDPRFQCSLWHAAPL
notes: DNA polymerase delta subunit 4 (p12), human; PCR product from pCOLA-hPold234; also called PIP-motif p12 mutant; source: E. coli BL21 DE3, purified (glutathione-sepharose; GST cleaved by PreScission protease); not shown: GST, N-terminal, cleaved
In the case of B3, the “stoichiometry N” value [4] is reported as 2.

Reference: publication PMC6424025, “Human DNA polymerase delta is a pentameric holoenzyme with a dimeric p12 subunit” (Life Science Alliance, 2019)
